Experimental data published in publication PMC4944284, “Identification of a Functionally Relevant Adeno-Associated Virus Rep68 Oligomeric Interface” (Journal of Virology, 2016).
Numbering of substitutions follows the chain as printed. Numbers in names are those of the source.

B1: Rep68* (AAV2 Rep68 C151S) (enzyme)
chain: MPGFYEIVIKVPSDLDGHLPGISDSFVNWVAEKEWELPPDSDMDLNLIEQAPLTVAEKLQRDFLTEWRRVSKAPEALFFVQFEKGESYFHMHVLVETTGVKSMVLGRFLSQIREKLIQRIYRGIEPTLPNWFAVTKTRNGAGGGNKVVDESYIPNYLLPKTQPELQWAWTNMEQYLSACLNLTERKRLVAQHLTHVSQTQEQNKENQNPNSDAPVIRSKTSARYMELVGWLVDKGITSEKQWIQEDQASYISFNAASNSRSQIKAALDNAGKIMSLTKTAPDYLVGQQPVEDISSNRIYKILELNGYDPQYAASVFLGWATKKFGKRNTIWLFGPATTGKTNIAEAIAHTVPFYGCVNWTNENFPFNDCVDKMVIWWEEGKMTAKVVESAKAILGGSKVRVDQKCKSSAQIDPTPVIVTSNTNMCAVIDGNSTTFEHQQPLQDRMFKFELTRRLDHDFGKVTKQEVKDFFRWAKDHVVEVEHEFYVKKGGAKKRPAPSDADISEPKRVRESVAQPSTSDAEASINYADRLARGHSL
notes: source: E. coli BL21(DE3), purified (Ni column, gel filtration on Superdex 200)
B2: Rep68*-N254A (enzyme)
chain: B1 chain with N254A
notes: as for B1
B3: Rep68*-Y224P (enzyme)
chain: B1 chain with Y224P
notes: as for B1
B4: Rep68*-Y224F (enzyme)
chain: B1 chain with Y224F
notes: also called Y224F mutant; source: E. coli BL21(DE3), purified (Ni column, gel filtration on Superdex 200)
B5: Rep68*-Y224D (enzyme)
chain: B1 chain with Y224D
notes: as for B1

Key:
[1] = molecular target: the molecule itself; assay: AUC; sedimentation velocity, protein 10 uM, 25 mM Tris-HCl pH 8.0, 200 mM NaCl, 25,000 rpm, 20°C, SEDFIT (Fig. 1B, C)
[2] = molecular target: the molecule itself; assay: AUC; sedimentation velocity, all proteins at 1 mg/ml, else as in Materials and Methods (25 mM Tris-HCl pH 8.0, 200 mM NaCl, 20°C) (Fig. 2D)

Row | Protein | binding result [1] | binding result [2]
1 | B1 | binds | –
2 | B2 | – | binds
3 | B3 | binds | –
4 | B4 | binds | –
5 | B5 | binds | –
